Measurements as given in US20100048468A1 (Amgen, published 2010).
Where a chain is given by its changes, count along the chain named. Groups on a side chain read outwards from the residue. No end group written: not given here. maleimide = maleimide group of a PEG-maleimide, coupled to the cysteine thiol (thioether); mPEG 20 kDa = 20 kD mPEG-maleimide, thioether-linked to the Cys; branched PEG 40 kDa = branched polyethylene glycol of 40 kDa

T1: mouse GLP-1 receptor (mouse, UniProt O35659 22-463)
T1 sequence (looked up): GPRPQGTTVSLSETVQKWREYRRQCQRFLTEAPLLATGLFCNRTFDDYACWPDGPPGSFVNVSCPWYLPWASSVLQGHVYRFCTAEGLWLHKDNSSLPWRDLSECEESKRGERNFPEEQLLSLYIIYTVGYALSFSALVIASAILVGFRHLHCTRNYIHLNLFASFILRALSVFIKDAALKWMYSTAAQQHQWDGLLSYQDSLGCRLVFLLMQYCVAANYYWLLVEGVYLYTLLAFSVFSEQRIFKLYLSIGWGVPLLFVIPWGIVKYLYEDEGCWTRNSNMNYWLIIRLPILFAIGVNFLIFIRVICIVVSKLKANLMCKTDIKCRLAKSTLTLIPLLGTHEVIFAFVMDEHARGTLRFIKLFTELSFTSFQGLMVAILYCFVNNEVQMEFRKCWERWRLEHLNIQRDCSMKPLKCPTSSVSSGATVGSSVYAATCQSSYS

T2: mouse GLP-1 receptor (mouse), O35659
T2 chain: T1 sequence (looked up)

B1: cgGLP-9 (SEQ ID NO: 6 + 20k PEG dimer) (peptide)
peptide: HGEGTFTSDVSSYLEGCAAKEFIAWLVKGRG
modifications: not checked
B2: cgGLP-1 (SEQ ID NO: 6 + 20K PEG) (peptide)
peptide: HGEGTFTSDVSSYLEGC([maleimide-mPEG 20 kDa])AAKEFIAWLVKGRG
B3: cgGLP-2 (SEQ ID NO: 6 + 40k branched PEG) (peptide)
peptide: HGEGTFTSDVSSYLEGC(branched PEG 40 kDa)AAKEFIAWLVKGRG
B4: cgGLP-7 (SEQ ID NO: 6 + 30k PEG) (peptide)
peptide: HGEGTFTSDVSSYLEGC(PEG 30 kDa)AAKEFIAWLVKGRG
B5: HGEGTFTSDVSSYLEGCAAKEFIAWLVKGRG (SEQ ID NO: 6) (peptide)
peptide: B1 peptide
notes: Unconjugated peptide
B6: HGEGTFTSDVSSYLEGCAAKEFIAWLVKGRGSSGAPPPS (SEQ ID NO: 7) (peptide)
peptide: HGEGTFTSDVSSYLEGCAAKEFIAWLVKGRGSSGAPPPS
notes: Unconjugated peptide
B7: cgGLP-12 (SEQ ID NO: 7 + 20k PEG monomer) (peptide)
peptide: HGEGTFTSDVSSYLEGC(PEG 20 kDa)AAKEFIAWLVKGRGSSGAPPPS
B8: cgGLP-14 (SEQ ID NO: 7 + 20k PEG dimer) (peptide)
peptide: B6 peptide
modifications: not fully specified (residue 17); also: dimer: two peptides on one forked PEG-(maleimide)2
B9: HGEGTFTSDVSSYLEGCAAKEFIAWLKNGGPSSGAPPPS (SEQ ID NO: 8) (peptide)
peptide: B6 peptide with V27K, K28N, R30G, G31P
notes: Unconjugated peptide
B10: cgGLP-15 (SEQ ID NO: 8 + 20k PEG dimer) (peptide)
peptide: B6 peptide with V27K, K28N, R30G, G31P
modifications: not fully specified (residue 17); also: dimer: two peptides on one forked PEG-(maleimide)2
B11: cgGLP-3 (SEQ ID NO: 6 + 8k PEG dumbbell) (peptide)
peptide: B1 peptide
modifications: not fully specified (residue 17); also: dimer: two peptides on one mal-PEG-mal, one at each end
B12: HGEGTFTSDVSSYLEGQAAKEFIAWLVKGRGCSG (SEQ ID NO: 10) (peptide)
peptide: HGEGTFTSDVSSYLEGQAAKEFIAWLVKGRGCSG
B13: cgGLP-4 & mgGLP-09A (SEQ ID NO: 10 + 20k PEG) (peptide)
peptide: B12 peptide
modifications: not fully specified (residue 32)
notes: also called cgGLP-09A

target: T3, human GLP-1 receptor (human, UniProt P43220 24-463); assay: cell-based or functional assay
Target sequence in this assay (P43220 24-463): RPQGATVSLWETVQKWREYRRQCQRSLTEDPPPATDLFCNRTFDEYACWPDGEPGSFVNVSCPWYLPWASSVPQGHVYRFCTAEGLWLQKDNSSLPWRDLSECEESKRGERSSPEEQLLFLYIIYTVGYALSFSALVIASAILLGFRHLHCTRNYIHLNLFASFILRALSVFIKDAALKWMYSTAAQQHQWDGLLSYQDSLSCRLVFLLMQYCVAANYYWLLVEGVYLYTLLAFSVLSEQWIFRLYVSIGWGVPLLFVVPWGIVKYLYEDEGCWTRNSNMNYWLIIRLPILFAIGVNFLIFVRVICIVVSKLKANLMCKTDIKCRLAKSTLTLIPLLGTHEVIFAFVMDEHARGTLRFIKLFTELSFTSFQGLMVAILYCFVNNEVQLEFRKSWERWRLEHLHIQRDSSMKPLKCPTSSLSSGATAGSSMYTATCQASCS

Binder	EC50 human [nM]
B1	1
B2	12
B3	0.7
B4	0.2

target: T3, human GLP-1 receptor; assay: cell-based or functional assay; remark: another data set of the same source

Binder	EC50 human [nM]
B5	0.24
B6	0.1
B7	1
B8	0.6
B9	0.07
B10	0.8
B11	0.2

target: T1, mouse GLP-1 receptor; assay: cell-based or functional assay

Binder	EC50 mouse [nM]
B2	245
B3	3.6
B4	2.9
B5	1.4
B6	0.8
B7	8
B8	4
B9	0.3
B10	2
B11	5.7

target: T3, human GLP-1 receptor; assay: cell-based or functional assay; remark: another data set of the same source

Binder	EC50 human [nM]
B12	0.05
B13	0.23

target: T1, mouse GLP-1 receptor; assay: cell-based or functional assay; remark: another data set of the same source

Binder	EC50 mouse [nM]
B12	0.32
B13	1.8

Target: T2, mouse GLP-1 receptor (mouse), O35659
Assay: cell-based or functional assay

Binder	EC50 mouse [nM]
B1	9

target: T3, human GLP-1 receptor; assay: 125I-GLP-1 displacement, membranes of CHOK1 cells expressing human GLP-1 receptor
Method: (§1) Membrane Preparation. […] Cells were sedimented at 1500 rpm for 10 minutes. The resulting pellets were homogenized in 15 mls of ice cold sucrose buffer (25 mM Tris-HCl, 0.32 M Sucrose, 0.25 g/L, sodium azide, pH 7.4) with a motorized, glass fitted, Teflon homogenizer. The homogenate was centrifuged at 48,000×g at 4° C. for 10 minutes, resuspended in 25 ml assay buffer (50 mM Tris-HCl, 5 mM MgCl₂, 10 mg/ml protease-free BSA, 0.1 mg/ml STI, and 0.1 mg/ml Pefabloc, pH 7.4) with a Tissue-Tearor (Biospec Products), then centrifuged again at 48,000×g for 10 minutes. The pellets were homogenized for a third time in 15 ml assay buffer using the Tissue-Tearor and again centrifuged at 48,000×g for 10 minutes. The resulting pellet was resuspended in assay buffer at a wet weight concentration of 4 mg/ml.
(§2) Ligand Binding Assay. Binding assays were performed in 96-well U-bottom plates. […] The reaction was terminated by rapid filtration through Unfilter-96 GF/C glass fiber filter plates (FilterMate 196 Packard Harvester, PerkinElmer, Shelton, Conn.) pre-soaked in 0.5% polyethylenimine, followed by three washes with 300 μl of cold 50 mM Tris-HCl, pH 7.4. Bound radioactivity was determined using a TopCount microplate scintillation and luminescence counter (Packard Instrument Company, PerkinElmer, Shelton, Conn.). Nonlinear regression analyses of resulting concentration curves were performed using GraphPad Prism (GraphPad Software, Inc., San Diego, Calif.).
In vitro experiments were conducted to determine receptor binding and potency for a class of molecules having a glycine substitution at position 8, a cysteine substitution at position 22 and a variable C-terminus.

Binder	IC50 [nM]
B5	70
B6	100
B7	1000
B8	300
B9	100
B10	300
B11	84

target: T3, human GLP-1 receptor; assay: as above; remark: another data set of the same source
Method: as §1, §2
The pegylated molecules were conjugated at the cysteine at position 38.

Binder	IC50 [nM]
B13	130
